Molecular target: T1, human KCNQ3/KvLR2 (human, UniProt O43525 25-872)
T1 sequence: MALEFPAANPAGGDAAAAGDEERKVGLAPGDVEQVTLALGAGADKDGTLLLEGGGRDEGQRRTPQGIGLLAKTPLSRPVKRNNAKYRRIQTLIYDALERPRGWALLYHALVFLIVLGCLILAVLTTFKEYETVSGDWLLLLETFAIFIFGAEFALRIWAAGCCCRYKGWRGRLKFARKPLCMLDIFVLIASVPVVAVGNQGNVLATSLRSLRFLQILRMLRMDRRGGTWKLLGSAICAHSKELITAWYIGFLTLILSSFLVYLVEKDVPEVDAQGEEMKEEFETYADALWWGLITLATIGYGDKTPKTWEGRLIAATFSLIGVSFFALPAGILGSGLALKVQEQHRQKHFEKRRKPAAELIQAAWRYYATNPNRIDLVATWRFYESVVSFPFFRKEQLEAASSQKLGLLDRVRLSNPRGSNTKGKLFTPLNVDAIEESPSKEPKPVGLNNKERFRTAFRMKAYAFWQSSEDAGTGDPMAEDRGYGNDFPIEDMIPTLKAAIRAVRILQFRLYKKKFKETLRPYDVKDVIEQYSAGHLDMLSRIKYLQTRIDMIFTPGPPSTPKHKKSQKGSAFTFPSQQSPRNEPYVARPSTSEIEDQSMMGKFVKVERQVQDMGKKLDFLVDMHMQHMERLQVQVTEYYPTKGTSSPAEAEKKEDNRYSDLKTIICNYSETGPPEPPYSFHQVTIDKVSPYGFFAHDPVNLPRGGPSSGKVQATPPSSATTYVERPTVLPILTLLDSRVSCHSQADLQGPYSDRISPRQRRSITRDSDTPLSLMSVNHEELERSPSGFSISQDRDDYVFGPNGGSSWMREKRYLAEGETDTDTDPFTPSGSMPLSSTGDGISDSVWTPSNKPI
Experiment: cell-based or functional assay

B1: human KCNQ2/KvLR1 (other)
chain: MVQKSRNGGVYPGPSGEKKLKVGFVGLDPGAPDSTRDGALLIAGSEAPKRGSILSKPRAGGAGAGKPPKRNAFYRKLQNFLYNVLERPRGWAFIYHAYVFLLVFSCLVLSVFSTIKEYEKSSEGALYILEIVTIVVFGVEYFVRIWAAGCCCRYRGWRGRLKFARKPFCVIDIMVLIASIAVLAAGSQGNVFATSALRSLRFLQILRMIRMDRRGGTWKLLGSVVYAHSKELVTAWYIGFLCLILASFLVYLAEKGENDHFDTYADALWWGLITLTTIGYGDKYPQTWNGRLLAATFTLIGVSFFALPAGILGSGFALKVQEQHRQKHFEKRRNPAAGLIQSAWRFYATNLSRTDLHSTWQYYERTVTVPMYSSQTQTYGASRLIPPLNQLELLRNLKSKSGLAFRKDPPPEPSPSKGSPCRGPLCGCCPGRSSQKVSLKDRVFSSPRGVAAKGKGSPQAQTVRRSPSADQSLEDSPSKVPKSWSFGDRSRARQAFRIKGAASRQNSEASLPGEDIVDDKSCPCEFVTEDLTPGLKVSIRAVCVMRFLVSKRKFKESLRPYDVMDVIEQYSAGHLDMLSRIKSLQSRVDQIVGRGPAITDKDRTKGPAEAELPEDPSMMGRLGKVEKQVLSMEKKLDFLVNIYMQRMGIPPTETEAYFGAKEPEPAPPYHSPEDSREHVDRHGCIVKIVRSSSSTGQKNFSAPPAAPPVQCPPSTSWQPQSHPRQGHGTSPVGDHGSLVRIPPPPAHERSLSAYGGGNRASMEFLRQEDTPGCRPPEGTLRDSDTSISIPSVDHEELERSFSGFSISQSKENLDALNSCYAAVAPCAKVRPYIAEGESDTDSDLCTPCGPPPRSATGEGPFGDVGWAGPRK
With B1 the “current amplitude in oocytes co-expressing KCNQ2 and KCNQ3 against oocytes injected with each channel alone (two-electrode voltage clamp)” value was 15 fold and the “shift of tail current reversal potential per 10-fold change in external K+ for KCNQ2+KCNQ3” value was 57 mV.
